Reference: US20150266963A1

How the values were obtained:
[1] = target: T1, recombinant human CD70 (Flag-TNC-CD70) (human) (UniProt P32970); experiment: blocking ELISA; human Flag-TNC-CD70; competitor CD27-Fc
T1 sequence (looked up): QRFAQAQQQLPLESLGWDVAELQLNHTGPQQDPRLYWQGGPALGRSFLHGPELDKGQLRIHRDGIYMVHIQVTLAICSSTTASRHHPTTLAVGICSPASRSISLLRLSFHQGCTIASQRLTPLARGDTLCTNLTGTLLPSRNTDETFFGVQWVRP

[2] = target: T2, human CD70 expressed on the surface of cells (human) (UniProt P32970); experiment: flow cytometry on U266 cells, goat anti human IgG1 FITC [panel U266]
T2 sequence (looked up): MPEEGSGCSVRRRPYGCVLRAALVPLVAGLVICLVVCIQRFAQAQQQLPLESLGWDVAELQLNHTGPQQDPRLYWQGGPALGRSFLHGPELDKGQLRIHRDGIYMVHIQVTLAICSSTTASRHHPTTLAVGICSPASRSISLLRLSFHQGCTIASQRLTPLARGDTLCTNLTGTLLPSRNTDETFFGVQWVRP

[3] = target: T2, human CD70 expressed on the surface of cells (human); experiment: flow cytometry on SU-DHL-6 cells, 1 h at 4 °C, anti-hIgG1-Fc-FITC or anti-hIgG-Fc-PE [panel SU-DHL-6]
[4] = target: T2, human CD70 expressed on the surface of cells (human); experiment: flow cytometry on U266 cells, 1 h at 4 °C, anti-hIgG1-Fc-FITC or anti-hIgG-Fc-PE [panel U266]
[5] = target: T1, recombinant human CD70 (Flag-TNC-CD70) (human); experiment: blocking ELISA; Flag-TNC-CD70 captured by anti-FLAG M2; competitor CD27-Fc 6.5 nM

Work on MDX1411 (antibody) yielded an IC50 [1] of 0.044 µg/mL, an EC50 (read off the curve) [2] of 0.1 µg/mL and an EC50 (read off the curve) [3] of 2 µg/mL. It also gave an EC50 (read off the curve) [4] of 0.1 µg/mL and an IC50 [5] of 5.5 µg/mL.
